Target: Fis (UniProt A0A0H2ZIA5 1-107)
Assay: EMSA
Details: protein: recombinant; chain copies: 2; label: none (ethidium bromide stain)

B1: exsA promoter -10 box probe (original Fis site, exsB-exsA intergenic) (dsDNA)
DNA 1: TAATCCTGATTATTATAAAATCGACTCCGTG
DNA 2: CACGGAGTCGATTTTATAATAATCAGGATTA
B1: binds.

Source: PMC5395579, “Fis Regulates Type III Secretion System by Influencing the Transcription of exsA in Pseudomonas aeruginosa Strain PA14”
